These results are taken from patent publication US20240392008A1.

The assay has as its target CD25 (IL-2Rα) (UniProt P01589). In words: cell-based or functional assay.
Sequence of UniProt P01589 (P01589 22-272 limits assumed): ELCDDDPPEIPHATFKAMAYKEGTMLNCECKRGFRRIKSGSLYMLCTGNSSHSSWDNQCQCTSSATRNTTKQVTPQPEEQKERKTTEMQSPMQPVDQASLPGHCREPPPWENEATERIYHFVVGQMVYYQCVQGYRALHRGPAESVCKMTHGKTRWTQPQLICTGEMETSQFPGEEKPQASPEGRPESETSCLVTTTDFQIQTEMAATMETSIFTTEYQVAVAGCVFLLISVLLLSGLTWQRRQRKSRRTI

B1: IC-T6-IC-IL2v (IL2v immunoconjugate) (protein, part only; not given: isotype control Fab and Fc chains, not shown: a dimerising Fc or GST)
chain, part: APASSSTKKTQLQLEHLLLDLQMILNGINNYKNPKLTRMLTAKFAMPKKATELKHLQCLEEELKPLEEVLNGAQSKNFHLRPRDLISNINVIVLELKGSETTFMCEYADETATIVEFLNRWITFAQSIISTLT
The molecule B1 yielded a percent of pSTAT5+ cells among Treg (flow cytometry on PBMC, 20 min) of 3 log.
